From patent US20220332804A1 (CSL INNOVATION, published 2022) come the findings set out here.

Substitutions are numbered along the chain they refer to.

Experiment in all cases: SPR; KD relative to WT C2;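 further: biacore SPR at 37 °C, anti-C2 mAbs captured on an anti-human IgG chip, alanine or serine C2 surface mutants tested, KD from 1:1 fit compared with wild-type C2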
One assay addresses T1, human C2 W420A (human, UniProt P06681 21-752).
T1 sequence: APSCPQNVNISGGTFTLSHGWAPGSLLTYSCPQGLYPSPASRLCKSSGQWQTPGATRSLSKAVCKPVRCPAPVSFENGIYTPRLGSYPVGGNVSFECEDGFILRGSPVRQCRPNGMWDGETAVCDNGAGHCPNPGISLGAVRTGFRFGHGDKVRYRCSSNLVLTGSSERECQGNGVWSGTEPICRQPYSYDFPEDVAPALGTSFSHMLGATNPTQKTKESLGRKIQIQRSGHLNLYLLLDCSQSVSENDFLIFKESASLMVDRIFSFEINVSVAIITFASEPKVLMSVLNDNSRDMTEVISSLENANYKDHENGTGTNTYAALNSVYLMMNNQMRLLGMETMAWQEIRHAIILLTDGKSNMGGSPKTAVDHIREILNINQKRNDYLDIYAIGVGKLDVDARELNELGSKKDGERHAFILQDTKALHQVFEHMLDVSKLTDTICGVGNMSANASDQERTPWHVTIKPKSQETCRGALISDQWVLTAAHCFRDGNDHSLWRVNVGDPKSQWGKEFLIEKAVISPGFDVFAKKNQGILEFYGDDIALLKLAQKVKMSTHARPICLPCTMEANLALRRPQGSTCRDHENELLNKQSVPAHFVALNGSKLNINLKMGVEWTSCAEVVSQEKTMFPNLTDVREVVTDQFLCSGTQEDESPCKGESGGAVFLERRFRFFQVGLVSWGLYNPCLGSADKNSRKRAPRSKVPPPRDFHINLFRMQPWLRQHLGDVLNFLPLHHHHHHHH

The target of the next assay is T2, human C2 L439A (human, UniProt P06681 21-752).
T2 sequence: T1 sequence with A400W, L419A

Another assay concerns the target T3, human C2 R493A (human, UniProt P06681 21-752).
T3 sequence: T1 sequence with A400W, R473A

In a further assay the target is T4, human C2 L620A (human, UniProt P06681 21-752).
T4 sequence: T1 sequence with A400W, L600A

Description for human C2 L439A: (§1) Surface plasmon resonance (SPR, Biacore) was used for all binding affinity analyses. In brief, goat anti-human IgG was directly immobilised onto the carboxymethyl dextran surface of CM5 sensorchips to approximately 12,000 RU using standard NHS/EDC chemistry at pH 5. The immobilised antibody surface was pre-conditioned with ten injections of polyclonal human IgG (Privigen 60 s) prepared at 1 μg/mL. Ligands (anti-C2 mAbs) were captured at the beginning of each cycle as described below. An adjacent spot or flow cell in which only Polyclonal IgG was capture was used as a reference surface. The goat anti-human IgG Fc antibody surface was regenerate in 100 mM H3PO4, injected for 45 seconds at the end of each cycle. Experiments were performed at 37° C. and the flow rate of each experiment was kept constant at 30 μL/min.
(§2) Sensogram data was double-referenced against a reference anti-IgG surface (i.e. minus anti-C2 mAb) and blank buffer injections obtained within each experiment. The binding data was fit to 1:1 (kinetic or steady-state) model using local Rmax and null refraction index (RI=0) when appropriate. Buffers and solutions were filtered (0.22 μm) prior to use.
(§3) The C2 mutants were designed to test the importance of surface exposed residues for antibody binding. Residues located at either the N-terminal VWA domain or C-terminal protease domain of C were replaced by either alanine or serine and tested for binding against anti-C2 antibodies.
Description for human C2 L620A: as §1, §2, §3
Description for human C2 R493A: as §1, §2, §3
Description for human C2 W420A: as §1, §2, §3

B1: RF16-214 (antibody, V domains shown)
VH: EVQLLESGGGLVQPGGSLRLSCAASGFTFSWYQMMWVRQAPGKGLEWVSRIYPSGGGTAYADSVKGRFTISRDNSKNTLYLQMNSLRAEDTAVYYCARDAGYGDNWGQGTLVTVSS
VL: QSALTQPPSVSVSPGQTASITCSGDKLGEKYASWYQQKAGQSPVMVIYQDRKRPSGIPERFSGSNSGNTATLTISGTQAMDEADYYCQAWDTRAVVFGGGTKLTVLG
Consider B1, for which the Fold diff came out at 1 fold with human C2 W420A, 42 fold in the assay with human C2 L439A, 1 fold with human C2 R493A and 1 fold with human C2 L620A.
